Results taken from IntAct's records for PubMed 29039417.

B1: BBSome complex member BBS1 (Homo sapiens), Q8NFJ9 (parent)
chain: MAAASSSDSDACGAESNEANSKWLDAHYDPMANIHTFSACLALADLHGDGEYKLVVGDLGPGGQQPRLKVLKGPLVMTESPLPALPAAAATFLMEQHEPRTPALALASGPCVYVYKNLRPYFKFSLPQLPPNPLEQDLWNQAKEDRIDPLTLKEMLESIRETAEEPLSIQSLRFLQLELSEMEAFVNQHKSNSIKRQTVITTMTTLKKNLADEDAVSCLVLGTENKELLVLDPEAFTILAKMSLPSVPVFLEVSGQFDVEFRLAAACRNGNIYILRRDSKHPKYCIELSAQPVGLIRVHKVLVVGSTQDSLHGFTHKGKKLWTVQMPAAILTMNLLEQHSRGLQAVMAGLANGEVRIYRDKALLNVIHTPDAVTSLCFGRYGREDNTLIMTTRGGGLIIKILKRTAVFVEGGSEVGPPPAQAMKLNVPRKTRLYVDQTLREREAGTAMHRAFQTDLYLLRLRAARAYLQALESSLSPLSTTAREPLKLHAVVQGLGPTFKLTLHLQNTSTTRPVLGLLVCFLYNEALYSLPRAFFKVPLLVPGLNYPLETFVESLSNKGISDIIKVLVLREGQSAPLLSAHVNMPGSEGLAAA
partner: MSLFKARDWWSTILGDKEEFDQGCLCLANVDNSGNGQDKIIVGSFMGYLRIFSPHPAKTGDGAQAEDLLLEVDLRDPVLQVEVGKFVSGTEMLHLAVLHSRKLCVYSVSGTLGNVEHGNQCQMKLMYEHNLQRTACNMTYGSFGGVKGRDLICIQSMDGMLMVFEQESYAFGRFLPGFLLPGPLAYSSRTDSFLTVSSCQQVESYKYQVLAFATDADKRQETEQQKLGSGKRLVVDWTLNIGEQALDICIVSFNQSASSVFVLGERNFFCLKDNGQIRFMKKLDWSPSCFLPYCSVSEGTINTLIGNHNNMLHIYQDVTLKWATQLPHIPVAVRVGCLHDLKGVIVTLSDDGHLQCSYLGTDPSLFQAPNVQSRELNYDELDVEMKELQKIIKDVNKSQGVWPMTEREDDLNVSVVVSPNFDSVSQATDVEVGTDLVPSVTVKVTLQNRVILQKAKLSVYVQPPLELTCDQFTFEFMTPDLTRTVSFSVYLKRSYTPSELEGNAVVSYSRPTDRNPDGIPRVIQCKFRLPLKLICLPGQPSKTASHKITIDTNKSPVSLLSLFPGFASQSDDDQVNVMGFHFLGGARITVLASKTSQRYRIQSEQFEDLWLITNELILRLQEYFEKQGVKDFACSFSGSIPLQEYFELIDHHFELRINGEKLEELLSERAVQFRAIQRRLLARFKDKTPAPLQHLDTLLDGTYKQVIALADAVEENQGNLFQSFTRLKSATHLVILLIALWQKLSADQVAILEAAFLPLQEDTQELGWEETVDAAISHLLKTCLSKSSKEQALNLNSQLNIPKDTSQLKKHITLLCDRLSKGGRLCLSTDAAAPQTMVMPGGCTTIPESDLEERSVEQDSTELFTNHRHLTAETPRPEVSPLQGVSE

Variants of: B1
Conditions: with pthb1_human BBS9, Q3SYG4

Variant	effect of a mutation on the interaction
MAAASSSDSDACGAESNEANSKWLDAHYDPMANIHTFSACLALADLHGDGEYKLVVGDLGPGGQQPRLKVLKGPLVMTESPLPALPAAAATFLMEQHEPRTPALALASGPCVYVYKNLRPYFKFSLPQLPPNPLEQDLWNQAKEDRIDPLTLKEMLESIRETAEEPLSIQSLRFLQLELSEMEAFVNQHKSNSIKRQTVITTMTTLKKNLADEDAVSCLVLGTENKELLVLDPEAFTILAKMSLPSVPVFLEVSGQFDVEFRLAAACRNGNIYILRRDSKHPKYCIELSAQPVGLIRVHKVLVVGSTQDSLHGFTHKGKKLWTVQMPAAILTMNLLEQHSRGLQAVMAGLANGEVRIYRDKALLNVIHTPDAVTSLCFGRYGREDNTLIMTTRGGGLIIKILKRTAVFVEGGSEVGPPPAQAMKLNVPRKTRLYVDQTLREREAGTAMHRAFQTDLYLLRLRAARAYLQALESSLSPLSTTAREPLKLHAVVQGLGPTFKLTLHLQNTSTTRPVLGLLVCFLYNEALYSLPRAFFKVPLLVPGLNYPLETFVESLSAKGISDIIKVLVLREGQSAPLLSAHVNMPGSEGLAAA [N557A]	with no effect
MAAASSSDSDACGAESNEANSKWLDAHYDPMANIHTFSACLALADLHGDGEYKLVVGDLGPGGQQPRLKVLKGPLVMTESPLPALPAAAATFLMEQHEPRTPALALASGPCVYVYKNLRPYFKFSLPQLPPNPLEQDLWNQAKEDRIDPLTLKEMLESIRETAEEPLSIQSLRFLQLELSEMEAFVNQHKSNSIKRQTVITTMTTLKKNLADEDAVSCLVLGTENKELLVLDPEAFTILAKMSLPSVPVFLEVSGQFDVEFRLAAACRNGNIYILRRDSKHPKYCIELSAQPVGLIRVHKVLVVGSTQDSLHGFTHKGKKLWTVQMPAAILTMNLLEQHSRGLQAVMAGLANGEVRIYRDKALLNVIHTPDAVTSLCFGRYGREDNTLIMTTRGGGLIIKILKRTAVFVEGGSEVGPPPAQAMKLNVPRKTRLYVDQTLREREAGTAMHRAFQTDLYLLRLRAARAYLQALESSLSPLSTTAREPLKLHAVVQGLGPTFKLTLHLQNTSTTRPVLGLLVCFLYNEALYSLPRAFFKVPLLVPGLNYPLETFVESLSEKGISDIIKVLVLREGQSAPLLSAHVNMPGSEGLAAA [N557E]	with no effect

The remaining lines, values ahead:

effect of a mutation on the interaction	Variant
with no effect	MAAASSSDSDACGAESNEANSKWLDAHYDPMANIHTFSACLALADLHGDGEYKLVVGDLGPGGQQPRLKVLKGPLVMTESPLPALPAAAATFLMEQHEPRTPALALASGPCVYVYKNLRPYFKFSLPQLPPNPLEQDLWNQAKEDRIDPLTLKEMLESIRETAEEPLSIQSLRFLQLELSEMEAFVNQHKSNSIKRQTVITTMTTLKKNLADEDAVSCLVLGTENKELLVLDPEAFTILAKMSLPSVPVFLEVSGQFDVEFRLAAACRNGNIYILRRDSKHPKYCIELSAQPVGLIRVHKVLVVGSTQDSLHGFTHKGKKLWTVQMPAAILTMNLLEQHSRGLQAVMAGLANGEVRIYRDKALLNVIHTPDAVTSLCFGRYGREDNTLIMTTRGGGLIIKILKRTAVFVEGGSEVGPPPAQAMKLNVPRKTRLYVDQTLREREAGTAMHRAFQTDLYLLRLRAARAYLQALESSLSPLSTTAREPLKLHAVVQGLGPTFKLTLHLQNTSTTRPVLGLLVCFLYNEALYSLPRAFFKVPLLVPGLNYPLETFVESLSKKGISDIIKVLVLREGQSAPLLSAHVNMPGSEGLAAA [N557K]
with no effect	MAAASSSDSDACGAESNEANSKWLDAHYDPMANIHTFSACLALADLHGDGEYKLVVGDLGPGGQQPRLKVLKGPLVMTESPLPALPAAAATFLMEQHEPRTPALALASGPCVYVYKNLRPYFKFSLPQLPPNPLEQDLWNQAKEDRIDPLTLKEMLESIRETAEEPLSIQSLRFLQLELSEMEAFVNQHKSNSIKRQTVITTMTTLKKNLADEDAVSCLVLGTENKELLVLDPEAFTILAKMSLPSVPVFLEVSGQFDVEFRLAAACRNGNIYILRRDSKHPKYCIELSAQPVGLIRVHKVLVVGSTQDSLHGFTHKGKKLWTVQMPAAILTMNLLEQHSRGLQAVMAGLANGEVRIYRDKALLNVIHTPDAVTSLCFGRYGREDNTLIMTTRGGGLIIKILKRTAVFVEGGSEVGPPPAQAMKLNVPRKTRLYVDQTLREREAGTAMHRAFQTDLYLLRLRAARAYLQALESSLSPLSTTAREPLKLHAVVQGLGPTFKLTLHLQNTSTTRPVLGLLVCFLYNEALYSLPRAFFKVPLLVPGLNYPLETFVESLSNKEISDIIKVLVLREGQSAPLLSAHVNMPGSEGLAAA [G559E]
with no effect	MAAASSSDSDACGAESNEANSKWLDAHYDPMANIHTFSACLALADLHGDGEYKLVVGDLGPGGQQPRLKVLKGPLVMTESPLPALPAAAATFLMEQHEPRTPALALASGPCVYVYKNLRPYFKFSLPQLPPNPLEQDLWNQAKEDRIDPLTLKEMLESIRETAEEPLSIQSLRFLQLELSEMEAFVNQHKSNSIKRQTVITTMTTLKKNLADEDAVSCLVLGTENKELLVLDPEAFTILAKMSLPSVPVFLEVSGQFDVEFRLAAACRNGNIYILRRDSKHPKYCIELSAQPVGLIRVHKVLVVGSTQDSLHGFTHKGKKLWTVQMPAAILTMNLLEQHSRGLQAVMAGLANGEVRIYRDKALLNVIHTPDAVTSLCFGRYGREDNTLIMTTRGGGLIIKILKRTAVFVEGGSEVGPPPAQAMKLNVPRKTRLYVDQTLREREAGTAMHRAFQTDLYLLRLRAARAYLQALESSLSPLSTTAREPLKLHAVVQGLGPTFKLTLHLQNTSTTRPVLGLLVCFLYNEALYSLPRAFFKVPLLVPGLNYPLETFVESLSNKAISDIIKVLVLREGQSAPLLSAHVNMPGSEGLAAA [G559A]
